Experimental data from article PMC2683190.

Molecular target: GST-LIF05 (mutant human LIF, LIFR antagonist, as glutathione-S-transferase fusion protein) (human) (UniProt P15018)
Assay: SPR

GST-LIF05 (mutant human LIF, LIFR antagonist, as glutathione-S-transferase fusion protein) (human), sequence (P15018 23-202, change not shown): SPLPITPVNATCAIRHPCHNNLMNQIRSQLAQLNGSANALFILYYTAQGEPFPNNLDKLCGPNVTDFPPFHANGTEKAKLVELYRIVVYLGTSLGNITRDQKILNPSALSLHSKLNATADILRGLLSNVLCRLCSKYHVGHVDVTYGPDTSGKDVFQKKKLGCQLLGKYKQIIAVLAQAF

Kd: 4.72 nM
koff: 0.00265 s⁻¹
kon: 562000 M⁻¹ s⁻¹
B1: soluble LIFR (leukemia inhibitory factor receptor) (receptor)
chain: QKKGAPHDLKCVTNNLQVWNCSWKAPSGTGRGTDYEVCIENRSRSCYQLEKTSIKIPALSHGDYEITINSLHDFGSSTSKFTLNEQNVSLIPDTPEILNLSADFSTSTLYLKWNDRGSVFPHRSNVIWEIKVLRKESMELVKLVTHNTTLNGKDTLHHWSWASDMPLECAIHFVEIRCYIDNLHFSGLEEWSDWSPVKNISWIPDSQTKVFPQDKVILVGSDITFCCVSQEKVLSALIGHTNCPLIHLDGENVAIKIRNISVSASSGTNVVFTTEDNIFGTVIFAGYPPDTPQQLNCETHDLKEIICSWNPGRVTALVGPRATSYTLVESFSGKYVRLKRAEAPTNESYQLLFQMLPNQEIYNFTLNAHNPLGRSQSTILVNITEKVYPHTPTSFKVKDINSTAVKLSWHLPGNFAKINFLCEIEIKKSNSVQEQRNVTIKGVENSSYLVALDKLNPYTLYTFRIRCSTETFWKWSKWSNKKQHLTTEASPSKGPDTWREWSSDGKNLIIYWKPLPINEANGKILSYNVSCSSDEETQSLSEIPDPQHKAEIRLDKNDYIISVVAKNSVGSSPPSKIASMEIPNDDLKIEQVVGMGKGILLTWHYDPNMTCDYVIKWCNSSRSEPCLMDWRKVPSNSTETVIESDEFRPGIRYNFFLYGCRNQGYQLLRSMIGYIEELAPIVAPNFTVEDTSADSILVKWEDIPVEELRGFLRGYLFYFGKGERDTSKMRVLESGRSDIKVKNITDISQKTLRIADLQGKTSYHLVLRAYTDGGVGPEKSMYVVTKENS
